# Experimental data reported in the supplement of paper PMC9170038.
# System: K4 kissing-loop RNA reporter
# Assay: apparent KD of K4 kissing-loop reporter; higher = weaker reporter binding
# Conditions: Eterna round: R107
# Protocol: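 RNA-MaP round R107: designed RNA switches with theophylline, tryptophan, arginine or FMN aptamers are transcribed on-chip within common flanks. They are titrated with a labelled K4 kissing-loop RNA reporter in RNA-MaP buffer (100 mM Tris pH 7.5, 80 mM KCl, 4 mM MgCl2), without ligand or with the indicated ligand. Median apparent KD per design.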
# [1] = input ligand: theophylline 20 uM
# [2] = input ligand: tryptophan 2.4 mM
# 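Further: bound reporter read as fluorescence of individual clusters on recovered sequencing chips by microscopy, with normalized cluster intensities fitted with a binding model.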
Sequence,apparent KD of K4 kissing-loop reporter (input ligand: FMN 200 uM) [nM],apparent KD of K4 kissing-loop reporter (input ligand: arginine 13.2 mM) [nM],apparent KD of K4 kissing-loop reporter (input ligand: none) [nM],apparent KD of K4 kissing-loop reporter [1] [nM],apparent KD of K4 kissing-loop reporter [2] [nM]
UCUGGAGCGUAUGAUACCAGCAGAGAGAGACAGGAAGUAUAGUGAUGUUAUAUGAGAGAAUGCCCUUGGCAGCGUGUGCAGUGGC [#26 K4 Theophylline B Same State],55.9,56.5,66.8,53.4,48
AAUAACUAGUAUUUUUUUAAUAAUACAGAUACCAGUGAUAAUAAACACCCUUGGCAGCUGAUCGAGUGAUGUUCGUUUAUUUUAA [JR_SSTheophyA_Sub003],57.3,83.3,64,112,54
ACGUAGUUCUAGGAUACCAGCCAAGGACGCCAGGACAAAAGUCCUGGCGCCAGUGAUGUUGGCCCUUGGCAGCCUAGAACUACGA [Omei KL Theo B Exc B v5],197,168,182,205,176
GCACUUCUCAGUGAUGUUGAGUAAUCGGAAGGAGCGCGUGAAAACGCAGGUAGGUCGCCGAUACAUGAAGUAUCUUCGUGUGUGC [Arginine A K4 25],306,235,295,279,216
GGGAACUCUUACGAUACCAGCCGGAGUGAUGUUCCGUGCUUGGACGUAGUAACCCGCACCGGCCCUUGGCAGCGUGGAUCUUGUG [Esgeonin],80.6,65.5,78.1,73.2,83.5
AGUGGACGUGUCCGGAGUGAUGUUCCGGAUACCAGACACGAAAGUGUCCCUUGGCAGCCGGAGUAAAGUUCCGGCGUUCACUAAA [#26 K4 Theophylline A Exclusion],109,77.8,111,67.2,105
AACUCUCAGACACCUGAGUGAUGUUCAGGCCGAGGACCGGUACGGCCGCCACUCGGGUCUGAGAGAGGUUAUCAAAGAUAGCCAA [Omei KL Tryp A SS A v3],675,244,336,304,338
GCCGUACGCAUGGAUACCAGAUCUAGACGCUUAGUGAUGUUAAGUAAUCUGGUUAGACCGAUCCCUUGGCAGCCAUGCGUACGGC,270,199,229,203,200
GGUGACAACCAGGAGUGAUGUAUAGAAUAGCGAGGACCGGUACGGCCGCCACUCGUGAAGAGAAAGGAGUGAUGUUCCGUAAUGG [Kazoo C3],129,126,165,74.2,62.8
AAAACGCUGUGAAUAACACAGCGAAAUUCGCGAGGACCGGUACGGCCGCCACUCGCUAACUGCGAGUGAUGUUCGAUAAUAAAAU [Mat - Mod of OpenEnded 3 - D3],166,90.3,170,161,104
CCAUCGCUAUUCGAUACCAGUCAUAAAAUCUUUGGUUUAAUAAAGGAGUGAUGUUCCCAAGACCCUUGGCAGCGAAUAGUGAUGG [Theophylline B K4 8],186,185,176,197,190
UGAUAGGACAGAAGGAGCGGAAGUGAUGUUUCCAAAAGGCUAAGGUGUCAAAAGACACCCUUCCAGGUAGGUCGCUGUCCUAUCU,237,274,221,260,203
UAUGUACGCGGGUAACGGUACAUCGAGGAAGGAGCGUGCGCAGGCACAGGUAGGUCGCCUCAGCGCACGAGUGAUGUUCGUGGGC [Rere],221,243,271,298,280
CCAUCGCUAUUCGAUACCAGUCAGGAGGUCUGUGACCUCCUAAUGGAGUGAUGUUCCUUAGACCCUUGGCAGCGAAUAGUGAUGG [#02 K4 Theophylline B Same State],203,196,221,141,202
ACCAUCAAAGAUGGCCAGGACUCAACUGAUACCAGAGUGAAAACACUCCCUUGGCAGCAGGUGAGUGAUGUUCACGAGUCCUGGA [Omel KL Theo A SS B v7],117,82,215,168,147
UGUCAUUGGUCGGCCGCCACUAGGACCGGGAUUUUUCUAGUGAUGUUAGUUUGGUCGGCCGCCACUAGGACCGGGACCGAUGACU [KL-SSTryp-B13 #DoubleAptamer],638,345,644,453,86.8
AAGUCUCGUUAAUUCGUGGUUUCGAUCGAUACCAGUAGCGAGAGUUACCCUUGGCAGCGAAAUGAGUGAUGUUCAUGAAAGAAGA [KL-XTheoA10],65.1,101,64.6,107,60
AAUUUAUUAUCUGAUACCAGACUUUUUCUUGUUUAUAAGUCAAGUGAUGUUUGACUUUUAGUCCCUUGGCAGCAGUAUUUUUUAA [JR_Nu_SSTheophyB_Sub026],125,128,123,113,114
UGGGAUGUUAAAGGAUAUAGCAAGUGAUAUAAGAAAGUGAGUGAUGUUGAUGUAGGUGAUGAUAUGUUAGAAGGUUAACAAAACG [abcdefg],350,217,356,294,257
UGUCAUUGGUCGGCCGCCACUUUAUAUGGAGUGAUGUUUUGUAGAUUGUGUUGAAAGGUGUGGUGAAGGACCGGGACCGAUGACU [FiskerMod 25 - Jieux - Same State - Tryptophan B],803,617,1010,1010,967
UCGAAGGAUGGAAGGAGCGCUCGUCAGCCCUGCGAGUGAUGUUCGUGGGUAAAUAGUCGCGAGCAGGUAGGUCGCCAUCUUGAGC [Ritera],128,111,130,111,116
AAUUUAUUAACUGAUACCAGACUUAAUGAAUUGUAAAUUACUAGUGAUGUUAGUGAAUCUGUCCCUUGGCAGCAGUAUUUAUUAA [JR_ExcTheophyB_Sub010],144,209,173,208,124

Sequence,apparent KD of K4 kissing-loop reporter (input ligand: FMN 200 uM) [nM],apparent KD of K4 kissing-loop reporter (input ligand: arginine 13.2 mM) [nM],apparent KD of K4 kissing-loop reporter (input ligand: none) [nM],apparent KD of K4 kissing-loop reporter [1] [nM],apparent KD of K4 kissing-loop reporter [2] [nM]
GCCGUAGAUGGAAGGAGCGUGGUUAAUGUAAGUGAUGUUUACGAGGUUAACAAUUGACCGCCACAGGUAGGUCGCCAUCUACGGC,84.6,65.9,74,70.5,70.5
CCAUUCAUCAGAAGGAGCGUCAAGUGAUGCUAUCCAGUGAUGUUGGAUAGCACGGAACAGUGACAGGUAGGUCGCUGAUGAGAGC [Arg B SS t8],121,106,115,95.7,131
UGAUAGGACAGAAGGAGCGGUAGUGAUGUUGCCAAAAGAAUAAGGUGUCAAAAGACACCCUGCCAGGUAGGUCGCUGUCCUAUCU,139,189,144,188,120
UUUGGUUUCUCGGCCGCCACUCGUUGGUUAUGGGCUUCAGGGAUAUAGUGAUGUUAUGUAUAGAAGAGGACCGGGAGAAGGAAGG [ExTryptoB.Dq],195,245,288,186,269
GCCGUAGAUUGAAGGAGCGGCAUUAACGAUGUUCUGGUAGUGAUGUUACCUCAGCAGACAUGCCAGGUAGGUCGCAAUCUACGGC,72.5,74.6,93.6,76.6,77
CUCGUGGGUUUGGGAGGGCUUGUGGGAAGAUAGGAUAUCUAGGGAGGGAGAAGGAUCUAUAGAAUAUAGUGAUGUUAUAUAUGGG [SSFMNA.aA],118,261,165,230,106
ACCUACCAUUAGUGAUGUUAAUGGACGGAAGGAGCGCGGAUAUCCGCAGGUAGGUCGCCGAAGGCUAGACAUUGUCUAGCCAUUA [AK1.2 SS Arginine A],225,186,196,166,182
CUGAUGCUGAUGCGGUGGCCGGUGGUCGUGCGAGGACCGGUACGGCCGCCACUCGCAUGAGUGAUGUUCAUGUGUCGUCGUCGUC [#04 K4 Tryptophan A Exclusion],204,133,169,164,172
UGAUACCAGACGGCCGCCACUUCUGCAAGUCAAAGACUUGCUAAAGGAAUCGUCCAGUGAUGUUGGAGGACCGGGUCUGGUAUCU [FiskerMod 1 - Jieux - Exclusion - Tryptophan B],1020,823,1170,638,772
GUCCACACUGCAGGAUAUGGAGGAAUAGCGAGGGAGUGUGGAAGCACACCUCUGGCAGUGAUGUUGCCAGAAGGGCGGUGCGGCG [Cemaorar],111,75.5,76.4,69,93.4
GGCACUUUUGCUUGGAACCGUCAAGCUCUUUAGGAUAUCUGGAAACAGAGAAGGAAAGACCUACAGAGUGAUGUUCUGCGUGCCU,332,133,273,183,144
GUAGGAUGAGGAGGAGGAUGAAUUACUGAAGGAGCGCAUAGAAAUGCAGGUAGGUCGCGGUAAAGAAGUAUAGUGAUGUUAUAUA [SSArgA.F],421,420,448,483,292
AUAGGAGUGAUGUUCCUUAGUCUCUCCGAUACCAGUAUGGAAACAUACCCUUGGCAGCGGUAGACCGCAGAUUAGGAAACUAGUC [Theophylline A K4 3],657,726,785,503,610
UGACUGGACUGAAGGAGCGCUGAACUCCUAGUGAUGUUAGGAAAACGAGACAAAGUCUCGAAGCAGGUAGGUCGCAGUCUAGUCU,138,101,112,138,115
UAAUAUACGAGUGAUGUUCGUUAUUUAUCAGAGGAUAUGCUUAAAUGCAGAAGGCUGUUUUUCUAAUUGAUAUUAAAUUUUUUUA [JR_Nu_ExcFMNA_Sub028],77.2,90.1,74,89.7,63.3
GGUAGCAUGGCGGCCGCCACUGUUCGUGUUGCUAGCAGAUUCCAGUGAUGUUGGAAGCCUAGGUACAGGACCGGGCCAUGCUACC,105,115,131,102,103
GCGGGCGGCUGAAGGAGCGGGCGGGCCCGAGUGAUGUUCGGGUGGGCCGUGAGGCCCGGAGCCCAGGUAGGUCGCGGUUCCGUCC [#2 Same State - Arginine B Attempt #19 (HarryS)],162,113,126,170,147
UGGACCAAGGAGUGAUGUUCCAUAUGUGAUACCAGCCACGAAAGUGGCCCUUGGCAGCACUGCCAGGACGAAAACGUCCGGUCCU [#SwitchBubble 13 #StaticStem #K4Early],390,346,503,477,321
GCCGUACGCAUGGAUACCAGCAAGUAUAUAUGCUAGUGAUGUUAGCGCUAUGCGAUGCGGUGCCCUUGGCAGCCAUGCGUACGGC,129,85.2,105,106,102
UCGGCAAAGUCGGCCGCCACUCCGGGCCCUAUAAAUGGGCGCAGUGAUGUUGCGGCUAGGCCUCUGAGGACCGGGACUUUGUAGA [Gebive],114,91.7,112,146,204
AUUAAUAUCACGGCCGCCACUGAAUAUUGUUUUUAUAUUUAGAAUAAUUGCCAGUGAUGUUGGAUCAGGACCGGGUGAUUUUAUA [JR_SSTryptoB_Sub008],775,489,727,739,360
CUUCGAUUAACAGAUACCAGUCACUUUGGAGCCACACACAAGUGAGUGAUGUUCACUUGUGACCCUUGGCAGCUGUUAGUCGAAG [Theo B Ex t1],92.8,75.4,83.4,87.6,88.1
